Laboratory results from patent US11840574B2, “Anti-DR5 antibody and use thereof” (DONG-A ST CO., LTD., priority 2017, dated 2023).
Residue numbers refer to the chain shown, from its start.

B1: DA5: humanized or deimmunized variant of parental clone D0; CDRs SEQ ID NO 1, 2, 7 / 4, 10, 13 (antibody, V domains shown)
VH: EVQLVESGGGLVQPGGSLRLSCAASGFTFSSFNMLWVRQAPGKGLEWVAGIGKSDRYTGYGSAVKGRFTISRDDSKSTAYLQMNSLRAEDTAVYYCVRDAGSGCGSGGWTGACIDTWGQGTLVTVSS
VL: DIQMTQSPSSLSASVGDRVTITCSGGDSYAGSYYYGWYQQKPGKAPKTLIYNNNNRPSGVPSRFSGSTSGTDFTLTISSLQPEDFATYYCGSRDSSYVGIFGQGTKVEIK
B2: DA6: humanized or deimmunized variant of parental clone D0; CDRs SEQ ID NO 1, 2, 7 / 4, 10, 13 (antibody, V domains shown)
VH: B1 VH with A79V, V97A
VL: B1 VL
B3: DA7: humanized or deimmunized variant of parental clone D0; CDRs SEQ ID NO 1, 2, 7 / 4, 10, 13 (antibody, V domains shown)
VH: B1 VH with A79V, V97S
VL: B1 VL
B4: DA8: humanized or deimmunized variant of parental clone D0; CDRs SEQ ID NO 1, 2, 7 / 4, 10, 13 (antibody, V domains shown)
VH: B1 VH with A79V
VL: B1 VL with T68G
B5: DA9: humanized or deimmunized variant of parental clone D0; CDRs SEQ ID NO 1, 2, 7 / 4, 10, 13 (antibody, V domains shown)
VH: B1 VH with A79L
VL: B1 VL with T68R
B6: DA10: humanized or deimmunized variant of parental clone D0; CDRs SEQ ID NO 1, 2, 7 / 4, 10, 13 (antibody, V domains shown)
VH: B1 VH with D74T, S77N, V97S
VL: B1 VL with T68R
B7: DA12: humanized or deimmunized variant of parental clone D0; CDRs SEQ ID NO 1, 2, 7 / 4, 11, 13 (antibody, V domains shown)
VH: B1 VH with D74T, S77N, V97S
VL: B1 VL with R56L, P57M, S58P, T68R
B8: DA13: humanized or deimmunized variant of parental clone D0; CDRs SEQ ID NO 1, 2, 7 / 4, 10, 14 (antibody, V domains shown)
VH: B1 VH with D74T, S77N, V97S
VL: B1 VL with T68R, S96A, Y97G, V98M, I100A
B9: DA14: humanized or deimmunized variant of parental clone D0; CDRs SEQ ID NO 1, 2, 7 / 4, 12, 13 (antibody, V domains shown)
VH: B1 VH with D74T, S77N, V97S
VL: B1 VL with R56K, P57A, S58K, T68R
B10: DA15: humanized or deimmunized variant of parental clone D0; CDRs SEQ ID NO 1, 2, 7 / 4, 10, 15 (antibody, V domains shown)
VH: B1 VH with D74T, S77N, V97S
VL: B1 VL with T68R, S96D, Y97G, V98G, I100R
B11: DA16: humanized or deimmunized variant of parental clone D0; CDRs SEQ ID NO 1, 2, 7 / 4, 10, 16 (antibody, V domains shown)
VH: B1 VH with D74T, S77N, V97S
VL: B1 VL with T68R, Y97G, V98A, I100G
B12: DA17: humanized or deimmunized variant of parental clone D0; CDRs SEQ ID NO 1, 2, 7 / 4, 12, 13 (antibody, V domains shown)
VH: B1 VH with A79V
VL: B1 VL with R56K, P57A, S58K, T68R
B13: DA18: humanized or deimmunized variant of parental clone D0; CDRs SEQ ID NO 1, 2, 7 / 4, 10, 15 (antibody, V domains shown)
VH: B1 VH with A79V
VL: B1 VL with T68R, S96D, Y97G, V98G, I100R
B14: DA24: humanized or deimmunized variant of parental clone D0; CDRs SEQ ID NO 1, 2, 7 / 4, 10, 13 (antibody, V domains shown)
VH: AVTLDESGGGLQTPGGGLSLVCKGSGFTFSSFNMLWVRQAPGKGLEWVAGIGKSDRYTGYGSAVKGRATISRDDGQSTVRLQLNNLRAEDTGTYYCVKDAGSGCGSGGWTGACIDTWGHGTEVIVSS
VL: LTQPSSVSANLGGTVEITCSGGDSYAGSYYYGWYQQKAPGSAPVTVIYNNNNRPSNIPSRFSGSTSGSTATLTITGVQAEDEATYYCGSRDSSYVGIFGAGTTLTVL
B15: DA25: humanized or deimmunized variant of parental clone D0; CDRs SEQ ID NO 1, 2, 7 / 4, 10, 13 (antibody, V domains shown)
VH: B14 VH with R80Y, L83M, N85S
VL: B14 VL with T84V, Y86F
B16: DA26: humanized or deimmunized variant of parental clone D0; CDRs SEQ ID NO 1, 2, 7 / 4, 10, 13 (antibody, V domains shown)
VH: B14 VH with R80Y, L83M, N85S
VL: B14 VL
B17: DA27: humanized or deimmunized variant of parental clone D0; CDRs SEQ ID NO 1, 2, 7 / 4, 10, 13 (antibody, V domains shown)
VH: B14 VH
VL: B14 VL with Y86F
B18: DA28: humanized or deimmunized variant of parental clone D0; CDRs SEQ ID NO 1, 2, 7 / 4, 10, 13 (antibody, V domains shown)
VH: B14 VH with V79A
VL: B14 VL with T84V, Y86F

Target: Human DR5 (Homo sapiens, UniProt O14763)
Test: Binding affinity of antibody to human DR5 (BIAcore, CM5 chip)
Conditions: for Ka / Ka(1/Ms): association rate, Human DR5, 1:1 Langmuir binding model; for Kd: equilibrium dissociation constant, Human DR5
Protocol: In order to measure affinity, human DR5 was coupled to carboxylated dextran biosensor chips (CM5, GE) according to the manufacturer's instruction. Association and dissociation rates were assessed by injecting IgG proteins that were 2-fold serially diluted to 5 nM, 2.5 nM, 1.25 nM, 0.625 nM, 0.313 nM, and 0.156 nM.
Association and dissociation rates were depicted in association and dissociation sensorgrams and calculated using a simple 1:1 Langmuir binding model (BIAcore X100 Evaluation Software, ver. 2.0). The equilibrium dissociation constants (KD), which is the ratio of dissociation constant (Kd) to association constant (Ka), were confirmed to be in the sub-nanomolar range. Measurements of the binding of antibody D0 and DA1 to DA35 of the present disclosure to DR5 are given in Table 11 below (antibody names are given as the names of the clones from which the antibodies were derived). A representative sensorgram for D0 is depicted in FIG. 1.

| Ka | Kd | Ka(1/Ms) | Molecule |
| --- | --- | --- | --- |
| 1.2e+06 M⁻¹ s⁻¹ | – | – | B1 |
| 7.8e+06 M⁻¹ s⁻¹ | – | – | B2 |
| 1.4e+06 M⁻¹ s⁻¹ | 1.9 pM | – | B3 |
| 1.6e+06 M⁻¹ s⁻¹ | – | – | B4 |
| 5.6e+06 M⁻¹ s⁻¹ | – | – | B5 |
| 2.3e+06 M⁻¹ s⁻¹ | 7 pM | – | B6 |
| – | 12.7 pM | 2.37 × 10^06 1/Ms | B7 |
| – | 11.2 pM | 2.62 × 10^06 1/Ms | B8 |
| – | 23.5 pM | 4.27 × 10^06 1/Ms | B9 |
| – | 1.09 pM | 2.56 × 10^06 1/Ms | B10 |
| – | 26.1 pM | 2.11 × 10^06 1/Ms | B11 |
| – | 23.5 pM | 2.54 × 10^06 1/Ms | B12 |
| – | 27.7 pM | 1.33 × 10^06 1/Ms | B13 |
| – | 1.02 pM | 1.20 × 10^06 1/Ms | B14 |
| – | 1.62 pM | 1.05 × 10^06 1/Ms | B15 |
| – | 1.01 pM | 1.09 × 10^06 1/Ms | B16 |
| – | 1.92 pM | 1.17 × 10^06 1/Ms | B17 |
| – | 3.89 pM | 1.16 × 10^06 1/Ms | B18 |
